We go through four molecules from patent US20170037110A1 (IMMATICS BIOTECHNOLOGIES, published 2017).

This experiment deals with T1, HLA-A*02:01 (human).
T1 construct: monomers captured on streptavidin plates; also called MHC class I
In words: UV peptide exchange ELISA. From the text:
Candidate peptides for T cell based therapies according to the present invention were further tested for their MHC binding capacity (affinity). The individual peptide-MHC complexes were produced by UV-ligand exchange, where a UV-sensitive peptide is cleaved upon UV-irradiation, and exchanged with the peptide of interest as analyzed. Only peptide candidates that can effectively bind and stabilize the peptide-receptive MHC molecules prevent dissociation of the MHC complexes. To determine the yield of the exchange reaction, an ELISA was performed based on the detection of the light chain (p2m) of stabilized MHC complexes.
96 well MAXISorp plates (NUNC) were coated over night with 2 μg/ml streptavidin in PBS at room temperature, washed 4× and blocked for 1 h at 37° C. in 2% BSA containing blocking buffer. […] Peptide-MHC monomers of the UV-exchange reaction were diluted 100 fold in blocking buffer. Samples were incubated for 1h at 37° C., washed four times, incubated with 2 μg/ml HRP conjugated anti-p2m for 1h at 37° C., washed again and detected with TMB solution that is stopped with […]. Absorption was measured at 450 nm.

B1: SLTIDGIYYV (peptide)
peptide: SLTIDGIYYV
For the molecule B1, the peptide exchange yield is at least 75%.

B2: SLTIDGIRYV (peptide)
peptide: SLTIDGIRYV
B2 came in with a peptide exchange yield of 50 to 75%.

B3: SLTEYLQNV (peptide)
peptide: SLTEYLQNV
Molecule B3 displayed a peptide exchange yield of at least 75%.

B4: SLTETIEGV (peptide)
peptide: SLTETIEGV
B4 yielded a peptide exchange yield of 20 to 50%.
